Experimental data published in US9539315B2, “Methods, agents and peptides for inhibiting matrix metalloproteinase-2 signaling” (New York University, priority 2011, dated 2017).
Entries after “also recorded” stand apart in the source; their conditions may differ.

Assays:
human TLR-2 = target: T1, human TLR-2 (Homo sapiens, UniProt O60603); test: HEK-Blue-hTLR2 NF-κB SEAP reporter assay; type: cell-based; details: MMP-2 5 mg/ml; twenty hours; with/without TLR2 blocking antibody
T1 construct: host or cells: HEK293 (HEK-Blue-hTLR2 cells)
Description: A) DCs were exposed to various TLR agonists for 2 days before cells were stained for OX40L. […] B) TLR2-transfected and engineered HEK cells were incubated with MMP-2 (5 mg/ml) or various controls. All conditions were also tested in the presence of a blocking antibody for TLR2. TNFα was used to activate NF-κB in a TLR-independent manner. Twenty hours later, NF-κB activation was measured.
TLR2-transfected and engineered HEK cells were incubated with MMP-2 (5 mg/ml), TLR2 agonists, recombinant PEX and 3 pools of overlapping 20-mers covering MMP-2. OLP1: mix of 22 overlapping peptides covering MMP-2 from amino-acid 1 to 220; OLP2: mix of 22 overlapping peptides covering MMP-2 from amino-acid 210 to 440; OLP3: mix of 22 overlapping peptides covering MMP-2 from amino-acid 450 to 660. Twenty hours later, NF-κB activation was measured. Neither PEX nor the peptides triggered NF-κB signaling.
TLR-2-transfected (stably) HEK-Blue™ Cells represent a very efficient high throughput reagent for screening due to an easy read-out. […] Levels of SEAP can be readily determined with QUANTI-Blue™, a detection medium that turns purple/blue in the presence of alkaline phosphatase. […] Inhibition of NF-κB activation by any agents/molecules can be assessed and confirmed in DCs (which endogenously express TLR2 or are engineered to express exogenous TLR2) in order to corroborate the initial screening results in a native or more natural context. […] TLR-2-expressing cells, such as those described herein, can be incubated with agents/molecules and molecular interactions assessed using methods, such as, e.g., co-immunoprecipitation of MMP-2 and TLR-2 from the cell lysates. […] Additional methods can be used to evaluate if MMP-2 and TLR-2 interact directly, including other affinity-based methods (e.g., affinity chromatography or panning), competitive inhibition assays, and various visualization techniques, such as fluorescence resonance energy transfer (FRET) and others which are known in the art. […]

DCs = test: Inflammatory cytokine secretion by DCs (cytokine bead array); type: cell-based, human; details: MMP-2 0.5 and 5 mg/ml, active or inactive; supernatants after eighteen hours
Description: DCs were exposed to MMP-2 (0.5 and 5 mg/ml) in various forms: active, heat-inactivated (HI), inhibited by a specific inhibitor (IMMP-2), PEX (last third of MMP-2, amino acids 445-635 of SEQ ID NO: 1), overlapping peptides (20-mer) spanning MMP-2, or controls. Eighteen hours later, supernatants were harvested and TNFα, IL-6, IL-8 and […] levels were measured by cytokine bead array.
PBMCs were purified from healthy-(HD) or cord blood- (CB) donors and plated at 40×10^6 cells/10 mL/dish in complete IMDM with 5% PHS. Cells were allowed to adhere for 2 h at 37° C. Non-adherent cells were removed. The monocyte-enriched fraction was supplemented with 100 UI/mL rhGMCSF and 300 UI/mL rhIL-4 (R&D Systems) on days 0, 2 and 4. Immature DCs were harvested on day 5 and matured using poly(I:C) at 5 μg/mL/10^6 DCs (Amersham). Secretion of IL-12p70, TNFα, IL-1β, IL-6, IL-8 and IL-10 was assessed on both immature and mature DCs using the Human Inflammatory Cytokine Cytometric Bead Array (BD Pharmingen).

T1 sequence (O60603 21-784): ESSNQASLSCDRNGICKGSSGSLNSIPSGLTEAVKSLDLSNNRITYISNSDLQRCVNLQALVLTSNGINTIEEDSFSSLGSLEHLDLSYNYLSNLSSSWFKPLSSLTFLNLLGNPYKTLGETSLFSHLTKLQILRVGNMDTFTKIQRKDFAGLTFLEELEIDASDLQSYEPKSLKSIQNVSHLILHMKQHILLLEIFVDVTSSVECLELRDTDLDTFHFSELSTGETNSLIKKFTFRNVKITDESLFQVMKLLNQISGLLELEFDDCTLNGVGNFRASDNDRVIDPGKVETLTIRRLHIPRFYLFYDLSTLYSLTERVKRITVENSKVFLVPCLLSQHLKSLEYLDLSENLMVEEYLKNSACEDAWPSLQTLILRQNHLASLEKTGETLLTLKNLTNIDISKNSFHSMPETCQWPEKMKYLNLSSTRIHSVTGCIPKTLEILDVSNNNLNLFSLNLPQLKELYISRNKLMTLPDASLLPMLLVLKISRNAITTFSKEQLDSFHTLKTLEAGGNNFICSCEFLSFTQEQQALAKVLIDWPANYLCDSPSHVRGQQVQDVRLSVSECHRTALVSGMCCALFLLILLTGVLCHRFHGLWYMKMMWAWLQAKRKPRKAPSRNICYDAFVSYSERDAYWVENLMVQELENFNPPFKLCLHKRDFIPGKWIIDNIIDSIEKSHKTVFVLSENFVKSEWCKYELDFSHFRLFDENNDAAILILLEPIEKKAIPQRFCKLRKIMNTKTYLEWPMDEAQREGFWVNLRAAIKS

B1: matrix metalloproteinase-2 (protein)
chain: YNFFPRKPKWDKNQITYRIIGYTPDLDPETVDDAFARAFQVWSDVTPLRFSRIHDGEADIMINFGRWEHGDGYPFDGKDGLLAHAFAPGTGVGGDSHFDDDELWTLGEGQVVRVKYGNADGEYCKFPFLFNGKEYNSCTDTGRSDGFLWCSTTYNFEKDGKYGFCPHEALFTMGGNAEGQPCKFPFRFQGTSYDSCTTEGRTDGYRWCGTTEDYDRDKKYGFCPETAMSTVGGNSEGAPCVFPFTFLGNKYESCTSAGRSDGKMWCATTANYDDDRKWGFCPDQGYSLFLVAAHEFGHAMGLEHSQDPGALMAPIYTYTKNFRLSQDDIKGIQELYGASPDIDLGTGPTPTLGPVTPEICKQDIVFDGIAQIRGEIFFFKDRFIWRTVTPRDKPMGPLLVATFWPELPEKIDAVYEAPQEEKAVFFAGNEYWIYSASTLERGYPKPLTSLGLPPDVQRVDAAFNWSKNKKTYIFAGDKFWRYNEVKKKMDPGFPKLIADAWNAIPDNLDAVVDLQGGGHSYFFKGAYYLKLENQSLKSVKFGSIKSDWLGC
Human TLR-2
  NF-κB activation in TLR2-transfected HEK cells: activates NF-κB through TLR-2 triggering; also recorded: activate NF-κB in a TLR2-dependent manner
DCs
  inflammatory cytokine secretion by DCs (TNFα, IL-6, IL-8, IL-1β): secrete inflammatory cytokines; also recorded: significantly expressed
